In assay [1] the target is B7-H3 antigen protein (UniProt Q5ZPR3). Description: blocking ELISA, coated B7-H3 10 µg/mL; no blocker (m2Y31 0 µg/mL); 8H9 2 µg/mL. For orientation: ELISA stands for enzyme-linked immunosorbent assay.
Assay [2] shares this target. In words: blocking ELISA, coated B7-H3 10 µg/mL; no blocker (m1B4 0 µg/mL); 8H9 2 µg/mL.
The target is the same in assay [3]. In words: blocking ELISA, coated B7-H3 10 µg/mL; no blocker (m2Y31 0 µg/mL); hu2Y31 2 µg/mL.

Where “and” joins values, the source holds several entries; their conditions need not be identical. Equal values may be shown once.

Chain of B7-H3 antigen protein (Q5ZPR3 29-461): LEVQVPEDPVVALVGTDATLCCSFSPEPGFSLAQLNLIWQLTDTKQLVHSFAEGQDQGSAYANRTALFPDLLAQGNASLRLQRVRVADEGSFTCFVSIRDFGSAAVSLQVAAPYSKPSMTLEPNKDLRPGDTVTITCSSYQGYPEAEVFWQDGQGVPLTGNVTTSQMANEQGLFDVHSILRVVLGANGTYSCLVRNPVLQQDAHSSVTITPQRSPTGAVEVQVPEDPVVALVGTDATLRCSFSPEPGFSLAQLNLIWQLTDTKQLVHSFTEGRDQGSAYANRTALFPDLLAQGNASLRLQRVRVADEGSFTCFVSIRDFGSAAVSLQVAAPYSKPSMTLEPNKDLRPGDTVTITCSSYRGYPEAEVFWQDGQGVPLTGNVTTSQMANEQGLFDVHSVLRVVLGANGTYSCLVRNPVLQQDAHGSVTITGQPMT

B1: antibody 8H9 (antibody, from another filing, V domains shown)
VH: QVQLQQSGAELVKPGASVKLSCKASGYTFTNYDINWVRQRPEQGLEWIGWIFPGDGSTQYNEKFKGKATLTTDTSSSTAYMQLSRLTSEDSAVYFCARQTTATWFAYWGQGTLVTVSA
VL: DIVMTQSPATLSVTPGDRVSLSCRASQSISDYLHWYQQKSHESPRLLIKYASQSISGIPSRFSGSGSGSDFTLSINSVEPEDVGVYYCQNGHSFPLTFGAGTKLELKR
B1: the OD value (450 nm) with B7-H3 antigen protein [1] is 2.36 OD450; with B7-H3 antigen protein [2], 3.38 OD450 and 3.39 OD450.

B2: humanized 2Y31 antibody (antibody, V domains shown)
VH: EVQLVESGGGLVKPGGSLKLSCAASGFAFSRYDMSWVRQSPEKRLEWVATISDDGRHTYDRDSVKGRFTISRDNAKNTLYLQMSSLRSEDTALYYCVRHRAITTARFDYWGQGTTVTVSS
VL: DIVMTQSPSSLSVSLGDTVSITCKASQDIYSNIGWLQQLPGQSFKGLIYHGTNLEDGVPSRFSGSGSGTDYSLTISGLESEDFADYYCLQYVQFPYTFGGGTKLEIKA
With B2, in the assay with B7-H3 antigen protein [3], the OD value (450 nm) is 2.07 OD450 and 2.02 OD450.

(Values after patent EP4644420A1 (Unicet Biotech. LLC, dated 2025).)
